Experiment [1] concerns the target T1, human GCC, full length with myc tag (293-GCC#2 cells) (human, UniProt P25092 24-1073). In words: cell-based or functional assay.
In experiment [2] the target is T1, human GCC, full length with myc tag …. In words: indirect immunofluorescence flow cytometry, 293 GCC #2 cells.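 Note: cells exposed to the test antibodies for 1 h on ice before flow cytometric readout.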 A general note: A flow cytometer gives signals particle by particle.
The next experiment deals with T2, rat GCC (rat, UniProt P23897 23-429, limits assumed).
T2 construct: Construct used for the cross-reactivity test is not described
T2 sequence (looked up): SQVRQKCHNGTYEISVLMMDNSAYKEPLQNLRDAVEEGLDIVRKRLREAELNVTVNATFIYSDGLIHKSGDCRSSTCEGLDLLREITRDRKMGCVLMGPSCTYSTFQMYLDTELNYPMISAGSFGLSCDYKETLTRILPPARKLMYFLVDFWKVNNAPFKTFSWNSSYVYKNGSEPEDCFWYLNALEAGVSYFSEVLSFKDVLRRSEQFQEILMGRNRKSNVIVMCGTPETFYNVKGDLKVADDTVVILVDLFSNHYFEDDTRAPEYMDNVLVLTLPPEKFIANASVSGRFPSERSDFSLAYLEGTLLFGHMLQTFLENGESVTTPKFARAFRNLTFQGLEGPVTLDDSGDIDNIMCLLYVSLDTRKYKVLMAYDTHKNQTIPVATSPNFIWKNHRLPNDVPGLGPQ
In words: not described (FIG. 4: ELISA on GCC orthologs). On the technique in general: ELISA stands for enzyme-linked immunosorbent assay.

Another experiment deals with T3, mouse GCC (mouse, UniProt Q3UWA6 20-433, limits assumed).
T3 construct: Construct used for the cross-reactivity test is not described
T3 sequence (looked up): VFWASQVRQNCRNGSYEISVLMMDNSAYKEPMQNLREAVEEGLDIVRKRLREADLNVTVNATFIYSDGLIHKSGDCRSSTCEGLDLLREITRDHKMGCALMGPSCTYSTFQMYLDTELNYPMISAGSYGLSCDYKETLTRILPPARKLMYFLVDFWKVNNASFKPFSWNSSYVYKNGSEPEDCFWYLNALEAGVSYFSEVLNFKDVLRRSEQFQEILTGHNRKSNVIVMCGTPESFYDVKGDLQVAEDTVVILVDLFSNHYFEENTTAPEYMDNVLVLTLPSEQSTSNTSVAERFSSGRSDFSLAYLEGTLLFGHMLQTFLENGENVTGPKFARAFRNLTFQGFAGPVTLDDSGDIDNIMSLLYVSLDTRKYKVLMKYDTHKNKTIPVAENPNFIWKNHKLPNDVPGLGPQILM
In words: not described (FIG. 4: ELISA on GCC orthologs).

T1 sequence (P25092 24-1073): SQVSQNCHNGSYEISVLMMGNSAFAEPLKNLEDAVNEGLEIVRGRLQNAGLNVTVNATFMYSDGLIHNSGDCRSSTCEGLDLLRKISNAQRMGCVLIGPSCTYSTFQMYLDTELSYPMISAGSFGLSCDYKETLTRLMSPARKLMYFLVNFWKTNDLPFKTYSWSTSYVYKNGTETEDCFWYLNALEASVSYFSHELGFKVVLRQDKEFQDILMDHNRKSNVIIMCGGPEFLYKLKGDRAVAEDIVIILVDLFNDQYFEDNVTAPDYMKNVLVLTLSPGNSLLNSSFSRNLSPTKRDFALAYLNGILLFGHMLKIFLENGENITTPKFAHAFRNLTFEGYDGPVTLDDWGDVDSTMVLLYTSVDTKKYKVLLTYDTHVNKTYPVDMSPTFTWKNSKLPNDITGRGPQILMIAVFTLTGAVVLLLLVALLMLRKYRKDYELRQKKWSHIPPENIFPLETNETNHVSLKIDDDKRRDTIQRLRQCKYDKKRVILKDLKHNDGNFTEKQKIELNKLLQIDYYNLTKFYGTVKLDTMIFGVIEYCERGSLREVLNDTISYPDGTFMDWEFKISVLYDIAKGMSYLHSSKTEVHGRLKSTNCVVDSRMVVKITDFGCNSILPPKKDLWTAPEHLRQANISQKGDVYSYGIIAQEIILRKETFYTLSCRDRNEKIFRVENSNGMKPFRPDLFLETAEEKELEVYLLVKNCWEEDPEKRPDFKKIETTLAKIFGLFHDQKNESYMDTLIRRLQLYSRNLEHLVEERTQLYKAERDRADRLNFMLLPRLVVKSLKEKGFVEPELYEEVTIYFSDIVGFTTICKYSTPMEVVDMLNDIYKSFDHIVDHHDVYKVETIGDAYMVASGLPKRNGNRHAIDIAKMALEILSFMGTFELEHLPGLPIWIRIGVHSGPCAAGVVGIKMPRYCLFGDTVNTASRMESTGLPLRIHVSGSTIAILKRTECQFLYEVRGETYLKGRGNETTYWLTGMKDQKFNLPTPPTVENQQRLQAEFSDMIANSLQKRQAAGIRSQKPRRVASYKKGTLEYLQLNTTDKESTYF

B1: mAb 5F9 (antibody, V domains shown)
VH: QVQLQQWGAGLLKPSETLSLTCAVFGGSFSGYYWSWIRQPPGKGLEWIGEINHRGNTNDNPSLKSRVTISVDTSKNQFALKLSSVTAADTAVYYCARERGYTYGNFDHWGQGTLVTVSS
VL: EIVMTQSPATLSVSPGERATLSCRASQSVSRNLAWYQQKPGQAPRLLIYGASTRATGIPARFSGSGSGTEFTLTIGSLQSEDFAVYYCQQYKTWPRTFGQGTNVEIK
notes: Human; hybridoma product is IgG2, kappa; also called 46.5F9.8.2; Prep A 5F9
As for B1, the “LD50, indirect cytotoxicity with DM1-conjugated mouse anti-human IgG, 293-GCC#2 cells, WST after 4 days” value in experiment [1] came to 26 pM. In experiment [2], the “MFI at 0.001 µg/ml” value was 500, the “MFI at 0.004 µg/ml” value stood at 937, the “MFI at 0.016 µg/ml” value was determined as 2460 and the “MFI at 0.063 µg/ml” value was found to be 6620. In experiment [2], the “MFI at 0.25 µg/ml” value was determined as 7820 and the “MFI at 1 µg/ml” value was found to be 8030. Also, the binding result with rat GCC was “no binding”. Moreover, the binding result with mouse GCC is reported as “no binding”.

For the origin of these results see US20140322233A1 (Takeda / Millennium, published 2014).
